Measurements as given in paper PMC7589778 (Viruses, 2020).

B1: Human mitochondrial LysRS with a C-terminal HA-tag (enzyme)
chain: not shown
modifications: homodimer; mature mitochondrial form (19 specific + 576 shared residues); HA-tag left out

Legend:
Assay in all cases: AlphaScreen or HTRF
Settings in all cases: both partners purified
[1] = molecular target: T1, Full-length integrase from HIV-1 with a C-terminal His-tag (HIV-1)
T1 construct: source: E. coli BL21(DE3), purified (Ni-NTA, Mono S); not shown: His6, C-terminal, kept

[2] = molecular target: Human mitochondrial LysRS with a C-terminal HA-tag (human, UniProt Q15046-2 1-625)
[3] = molecular target: B1

| Binder | Kd [2] | also measured |
| --- | --- | --- |
| B1 | – | Kd [1]: 2.6 nM |
| C-terminal domain of HIV-1 integrase starting at residue 213, C-terminal His-tag (domain or fragment, homodimer; mature mitochondrial form (19 specific + 576 shared residues); HA-tag left out) LQKQITKIQNFRVYYRDSRDPVWKGPAKLLWKGEGAVVIQDNSDIKVVPRRKAKIIRDYGKQMAGDDCVASRQDED | 190 nM | – |
| IN-CTD222 with a deletion of 15 C-terminal residues, C-terminal His-tag (domain or fragment, source: E. coli BL21(DE3), purified (Ni-NTA, Mono S); not shown: His6, C-terminal, kept) NFRVYYRDSRDPVWKGPAKLLWKGEGAVVIQDNSDIKVVPRRKAKIIRDYGK | – | Kd [3]: 142 nM |
| HIV-1 integrase catalytic core domain (deletion of the NTD and the CTD), C-terminal His-tag (domain or fragment, homodimer; mature mitochondrial form (19 specific + 576 shared residues); HA-tag left out) MHGQVDCSPGIWQLDCTHLEGKVILVAVHVASGYIEAEVIPAETGQETAYFLLKLAGRWPVKTVHTDNGSNFTSTTVKAACWWAGIKQEFGIPYNPQSQGVIESMNKELKKIIGQVRDQAEHLKTAVQMAVFIHNFKRKGGIGGYSAGERIVDIIATDIQTKE | > 400 nM | – |
| HIV-1 integrase with a deletion of the NTD, C-terminal His-tag (domain or fragment, homodimer; mature mitochondrial form (19 specific + 576 shared residues); HA-tag left out) MHGQVDCSPGIWQLDCTHLEGKVILVAVHVASGYIEAEVIPAETGQETAYFLLKLAGRWPVKTVHTDNGSNFTSTTVKAACWWAGIKQEFGIPYNPQSQGVIESMNKELKKIIGQVRDQAEHLKTAVQMAVFIHNFKRKGGIGGYSAGERIVDIIATDIQTKELQKQITKIQNFRVYYRDSRDPVWKGPAKLLWKGEGAVVIQDNSDIKVVPRRKAKIIRDYGKQMAGDDCVASRQDED | 3 nM | – |
